# Assay results reported in the RNAGym collection of RNA variant scans (doi:10.1021/acssynbio.7b00057).
# B1: Pistol ribozyme (parent)
# chain: GGGUCGUUGUUCCAUAAUCGCGUGGAUAUGGCACGCAAGUUUCUACCGGGCACCGUAAAUGUCCGACUGGAGCCGUUCGGGCGGCUAUAAACAGACCUCAGGCCCGAAGCGUGGCGGCACCUGCCGCCGGUGGUAAAAAAGAUCGGAAGAGCACACGUCU
# Variants of: B1
# Experiment: aptazyme ON/OFF ratio, guanine; higher = stronger switching; co-transcriptional cleavage with and without guanine
row,Variant,aptazyme ON/OFF ratio
1,U7A U8A G9C U10C U11A,0.719
2,U7A U8A G9C U10C U11G,0.815
3,U7A U8A G9C U10C U11C,0.984
4,U7A U8A G9U U10A U11C C12U C13U,1.21
5,U7A U8A G9U U10A U11C C12U C13A,1.06
6,U7A U8A G9U U10A U11C C12U C13G,1.05
7,U7A U8A G9C U10G U11A C12A C13G,1.12
8,U7A U8A G9C U10G U11A C12A C13U,1.2
9,U7A U8A G9C U10G U11A C12A C13A,1.17
10,U7A U8A G9C U10A U11G C12G C13A,1.18
11,U7A U8A G9C U10A U11G C12G C13U,1.14
12,U7A U8A G9C U10A U11G C12G C13G,1.25
13,U7A U8A G9C U10G U11A C12U C13A,1.11
14,U7A U8A G9C U10G U11A C12U C13U,1.1
15,U7A U8A G9C U10G U11A C12U C13G,1.13
16,U7A U8A G9C U10C U11A C12G C13A,1.05
17,U7A U8A G9C U10C U11A C12G C13G,1.06
18,U7A U8A G9C U10C U11A C12G C13U,1.1
19,U7A U8A G9U U10A C12A C13A,1.34
20,U7A U8A G9U U10A C12A C13U,1.15
21,U7A U8A G9U U10A C12A C13G,1.24

row,Variant,aptazyme ON/OFF ratio
1,U7A U8A G9C U10C C12U C13A,1.02
2,U7A U8A G9C U10C C12U C13U,1.07
3,U7A U8A G9C U10C C12U C13G,1.1
4,U7A U8A G9C U10C U11C C12G,1.05
5,U7A U8A G9C U10C U11C C12A,1.05
6,U7A U8A G9C U10C U11C C12U,1.02
7,U7A U8A G9U U10A U11G C12G,1.19
8,U7A U8A G9U U10A U11G C12A,1.07
9,U7A U8A G9U U10A U11G C12U,1.46
10,U7A U8A G9C U10A U11C C12U C13A,1.13
11,U7A U8A G9C U10A U11C C12U C13G,1.19
12,U7A U8A G9C U10A U11C C12U C13U,1.11
13,U7A U8A G9C U10A U11C C13G,1.05
14,U7A U8A G9C U10A U11C C13A,1.07
15,U7A U8A G9C U10A U11C C13U,1.04
16,U7A U8A G9C U10A U11A C12G C13U,1.19
17,U7A U8A G9C U10A U11A C12G C13G,1.23
18,U7A U8A G9C U10A U11A C12G C13A,1.18
19,U7A U8A G9C U10G U11C C12U C13G,1.19
20,U7A U8A G9C U10G U11C C12U C13U,1.24
21,U7A U8A G9C U10G U11C C12U C13A,1.15

row,Variant,aptazyme ON/OFF ratio
1,U7A U8A G9C U10C U11G C12G C13A,1.1
2,U7A U8A G9C U10C U11G C12G C13G,1.08
3,U7A U8A G9C U10C U11G C12G C13U,1.08
4,U7A U8A G9C U10C C12A C13U,1.04
5,U7A U8A G9C U10C C12A C13G,1.04
6,U7A U8A G9C U10C C12A C13A,1.04
7,U7A U8A G9C U10G U11C C12G,1.27
8,U7A U8A G9C U10G U11C C12U,1.13
9,U7A U8A G9C U10G U11C C12A,1.81
10,U7A U8A G9C U10A U11G C12U C13U,1.14
11,U7A U8A G9C U10A U11G C12U C13A,1.17
12,U7A U8A G9C U10A U11G C12U C13G,1.11
13,U7A U8A G9C U11C C13G,1.07
14,U7A U8A G9C U11C C13U,1.07
15,U7A U8A G9C U11C C13A,1.08
16,U7A U8A G9C U10C U11C C12U C13G,1.02
17,U7A U8A G9C U10C U11C C12U C13U,1.05
18,U7A U8A G9C U10C U11C C12U C13A,1.01
19,U7A U8A G9U U10A U11G C12U C13G,1.15
20,U7A U8A G9U U10A U11G C12U C13A,1.25
21,U7A U8A G9U U10A U11G C12U C13U,1.27

row,Variant,aptazyme ON/OFF ratio
1,U7A U8A G9U U10A U11C C13A,1.08
2,U7A U8A G9U U10A U11C C13U,1.01
3,U7A U8A G9U U10A U11C C13G,1.1
4,U7A U8A G9C U10C U11C C12A C13A,1
5,U7A U8A G9C U10C U11C C12A C13U,1.02
6,U7A U8A G9C U10C U11C C12A C13G,1.01
7,U7A U8A G9C U10G C12A,1.1
8,U7A U8A G9C U10G C12G,1.33
9,U7A U8A G9C U10G C12U,1.41
10,U7A U8A G9C U10C U11G C12A,1.07
11,U7A U8A G9C U10C U11G C12U,1.08
12,U7A U8A G9C U10C U11G C12G,1.09
13,U7A U8A G9C U10A U11G C12A C13A,1.07
14,U7A U8A G9C U10A U11G C12A C13G,1.18
15,U7A U8A G9C U10A U11G C12A C13U,1.08
16,U7A U8A G9C U10G U11A C12G C13U,1.13
17,U7A U8A G9C U10G U11A C12G C13A,1.26
18,U7A U8A G9C U10G U11A C12G C13G,1.21
19,U7A U8A G9C U10C U11G C12A C13U,1.03
20,U7A U8A G9C U10C U11G C12A C13A,0.981
